Measured values reported in patent publication US6051698.
Read-outs that look alike come from different tables or passages of the source.

How the values were obtained:
[1] = test system: T1, VEGF165 (Homo sapiens), P15692-4; assay: filter; conditions: 2'-F pyrimidines, 2'-OH purines, 37 C
T1 sequence: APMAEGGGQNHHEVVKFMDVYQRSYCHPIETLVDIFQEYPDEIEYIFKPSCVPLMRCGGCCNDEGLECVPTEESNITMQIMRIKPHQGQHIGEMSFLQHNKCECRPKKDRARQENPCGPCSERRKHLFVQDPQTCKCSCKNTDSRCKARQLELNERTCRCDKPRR

[2] = test system: VEGF165 (Homo sapiens), P15692-4; conditions: 2'-NH2 pyrimidines, 2'-OMe purines; CITED US 5811533; cited from earlier work

| Substance | Kd ([1]; single determination) | Kd [1] | also measured |
| --- | --- | --- | --- |
| GGGAGGACGAUGCGGAGAAUCAGUGAAUGCUUAUAAAUCUCGYGUCAGACGACUCGCCCGA [VT30.3] | 0.005 nM | – | – |
| GGGAGGACGAUGCGGAYCAACCGAUUGACGUUAUGGGACGCUGGUCAGACGACUCGCCCGA [VP30.5] | 0.008 nM | – | – |
| GGGAGGACGAUGCGGCGGYACUUUGGAAGAAUUGAAUUUCCCGCUCAGACGACUCGCCCGA [VP30.26] | 0.01 nM | – | – |
| GGGAGGACGAUGCGGUAGGAAGAAUUGGAAGCGCAUUUUCCUCGYCAGACGACUCGCCCGA [VP30.22] | – | 0.02 nM | – |
| GGGAGGACGAUGCGGYGAACCGAUGGAAUUUUUGGACGCUCGCCUCAGACGACUCGCCCGA [VP30.2] | – | 0.01 nM | – |
| NX-213 | – | – | Kd [2]: 0.14 nM |
